Test [1] concerns the target T1, P-selectin on thrombin-activated human platelets (human, UniProt P16109 42-830).
T1 construct: whole, on cells
T1 sequence (looked up): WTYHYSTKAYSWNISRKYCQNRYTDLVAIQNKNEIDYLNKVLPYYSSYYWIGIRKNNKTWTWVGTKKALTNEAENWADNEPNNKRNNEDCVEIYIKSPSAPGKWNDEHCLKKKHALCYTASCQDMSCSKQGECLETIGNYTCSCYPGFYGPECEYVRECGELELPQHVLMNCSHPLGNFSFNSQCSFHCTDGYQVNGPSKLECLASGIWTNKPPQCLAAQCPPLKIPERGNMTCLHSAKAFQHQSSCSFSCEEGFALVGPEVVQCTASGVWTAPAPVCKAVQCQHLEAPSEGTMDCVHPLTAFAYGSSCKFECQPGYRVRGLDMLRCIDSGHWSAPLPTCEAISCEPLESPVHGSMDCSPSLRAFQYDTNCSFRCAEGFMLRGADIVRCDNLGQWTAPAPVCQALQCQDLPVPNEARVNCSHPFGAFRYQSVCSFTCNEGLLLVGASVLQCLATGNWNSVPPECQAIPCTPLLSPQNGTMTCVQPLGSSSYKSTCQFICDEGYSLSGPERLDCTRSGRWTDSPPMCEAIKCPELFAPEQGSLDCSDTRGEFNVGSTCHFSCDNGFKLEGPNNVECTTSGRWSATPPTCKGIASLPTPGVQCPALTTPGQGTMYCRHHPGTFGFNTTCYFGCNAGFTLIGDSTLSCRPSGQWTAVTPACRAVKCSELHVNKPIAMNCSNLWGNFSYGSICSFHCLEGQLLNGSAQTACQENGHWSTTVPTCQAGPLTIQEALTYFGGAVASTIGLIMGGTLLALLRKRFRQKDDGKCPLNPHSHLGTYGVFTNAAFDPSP
Briefly: ELISA on plate-coated thrombin-activated human platelets. Here is the method:
The ability of purified HuSZ51-DSPAalpha1 to bind specifically to human or dog thrombin-activated platelets in vitro was investigated by ELISA. 96-Well plates were coated with a 100 μl solution containing 1×10⁶ thrombin-activated human or dog platelets per well and incubated overnight at 4° C. The coated plates were washed once with washing solution (PBS, pH 7.4 plus 0.05% Tween-20), and then incubated with 200 μl blocking solution (5% milk prepared in PBS) per well at 37° C. for 2 hours. The blocked plates were washed 3 times with washing solution, and then incubated with 100 μl washing solution containing various amounts of HuSZ51-DSPAalpha1, SZ51, or human IgG1 for 1 hour at 37° C. The plates were washed 3 times with washing solution, and then incubated with peroxidase-conjugated protein L (Pierce) for 1 hour at 37° C. The plates were washed 4 times with washing solution, and then incubated with 100 μl of TMB/E substrate (ZYMED) for 5 minutes at room temperature. The perioxidase reactions were stopped by the addition of 100 μl 1 N HCl, and the plates were read for absorbance at 450 nm within 5 minutes.

The target of test [2] is T2, recombinant human P-selectin (R&D Systems) (human, UniProt P16109 42-771).
T2 construct: extracellular domain; also called recombinant soluble P-selectin; recombinant P-selectin
T2 sequence (looked up): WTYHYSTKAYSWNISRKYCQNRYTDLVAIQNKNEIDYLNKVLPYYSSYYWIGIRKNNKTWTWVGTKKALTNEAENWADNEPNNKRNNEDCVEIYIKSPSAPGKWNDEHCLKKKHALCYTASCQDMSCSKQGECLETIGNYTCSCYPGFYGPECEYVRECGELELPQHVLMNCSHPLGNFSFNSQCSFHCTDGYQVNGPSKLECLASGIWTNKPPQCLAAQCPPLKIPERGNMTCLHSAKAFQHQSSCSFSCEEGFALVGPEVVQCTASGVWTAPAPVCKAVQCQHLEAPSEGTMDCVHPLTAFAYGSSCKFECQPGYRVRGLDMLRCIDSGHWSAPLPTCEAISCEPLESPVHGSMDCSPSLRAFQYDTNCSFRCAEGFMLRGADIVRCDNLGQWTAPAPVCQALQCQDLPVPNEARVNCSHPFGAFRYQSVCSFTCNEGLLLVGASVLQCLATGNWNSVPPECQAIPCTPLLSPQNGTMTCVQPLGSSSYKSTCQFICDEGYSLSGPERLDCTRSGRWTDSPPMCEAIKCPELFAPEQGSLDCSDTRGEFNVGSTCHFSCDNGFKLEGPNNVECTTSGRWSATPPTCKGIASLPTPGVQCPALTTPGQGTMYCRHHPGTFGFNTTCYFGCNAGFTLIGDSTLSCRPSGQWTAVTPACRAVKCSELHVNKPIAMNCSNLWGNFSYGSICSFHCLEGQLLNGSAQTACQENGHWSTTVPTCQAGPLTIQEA
Briefly: recombinant soluble P-selectin (0-40 ng) after SDS-PAGE on nitrocellulose, detection with HRP goat anti-human Fc. On the procedure:
1. Binding of HuSZ51-DSPAalpha1 to P-selectin on a nitrocellulose membrane. The indicated amounts of recombinant soluble P-selectin (R&D systems), 0, 5, 10, 20, or 40 ng, along with 10 ng of human IgG1, were separated on SDS-PAGE gels and then transferred onto nitrocellulose membranes. One membrane was incubated with HuSZ51, and the second was incubated with HuSZ51-DSPAalpha1. After washing, bound HuSZ51 or HuSZ51-DSPAalpha1 was detected by HRP-conjugated goat anti-human Fc. The intensity of human IgG1 lane, which is also detected by HRP-conjugated goat anti-human Fc was used as a normalization control.

B1: SZ51, murine anti-P-selectin monoclonal antibody (antibody, V domains shown)
VH: QVQLLESGPELKKPGETVKISCKASGYTFTNYGMNWVKQAPGKGLKWMGWINTYTGEPIYADDFKGRFAFSLETSASTAHLQINSLKNEDMATYFCARGRGGNAMDYWGQGTSVTVSS
VL: ELQMTQSPSSLSASVGDRVTISCSASQDISNYLNWYQQKPDGPVKLLIYYTTSNLHSGVPSRFSGSGSGTDYSLTISNLEPEDIATYYCQQYNKVPWTFGGGTKLEIKR
notes: Variable region DNA in GenBank gi:4099282 (heavy) and gi:4099284 (light); also called parental monoclonal antibody SZ51; anti-P-selectin mouse monoclonal antibody
For the molecule B1, the binding result in test [1] is on record as “binds”.

B2: HuSZ51, chimeric mouse-human anti-P-selectin monoclonal antibody (antibody, human IgG1, V domains shown)
VH: QVQLLESGPELKKPGETVKISCKASGYTFTNYGMNWVKQAPGKGLKWMGWINTYTGEPIYADDFKGRFAFSLETSASTAHLQINSLKNEDMATYFCARGRGGNAMDYWGQGTSVTVSS
VL: ELQMTQSPSSLSASVGDRVTISCSASQDISNYLNWYQQKPDGPVKLLIYYTTSNLHSGVPSRFSGSGSGTDYSLTISNLEPEDIATYYCQQYNKVPWTFGGGTKLEIKR
Regarding B2, the binding result in test [2] is listed as “binds”.
